In paper PMC10665946:

Columns and labels:
[1] = target: WT CC8 LukAB (leukocidin A/leukocidin B) heterodimer (S. aureus); assay: negative stain electron microscopy; 0.03 mg/ml protein in TBS + 40% v/v MPD, RT 45 min; uranyl formate stain; 2D class averages
[2] = target: V113A LukB CC8 LukAB (S. aureus); assay: negative stain electron microscopy; 0.03 mg/ml protein in TBS + 20% v/v MPD, RT 45 min; uranyl formate stain; 2D class averages
[3] = target: V113A LukB CC8 LukAB (S. aureus); assay: negative stain electron microscopy; 0.03 mg/ml protein in TBS + 40% v/v MPD, RT 45 min; uranyl formate stain; 2D class averages

Substance | stoichiometry N [1] | stoichiometry N [2] | stoichiometry N [3]
WT CC8 LukAB (leukocidin A/leukocidin B) heterodimer (complex) | 8 |  | 
V113A LukB CC8 LukAB (complex) |  | 8 | 8
